Earlier results in publication PMC9363672.

Biological target: syndecan 3 (Homo sapiens) (UniProt O75056)
Chain of UniProt O75056 (O75056 whole entry): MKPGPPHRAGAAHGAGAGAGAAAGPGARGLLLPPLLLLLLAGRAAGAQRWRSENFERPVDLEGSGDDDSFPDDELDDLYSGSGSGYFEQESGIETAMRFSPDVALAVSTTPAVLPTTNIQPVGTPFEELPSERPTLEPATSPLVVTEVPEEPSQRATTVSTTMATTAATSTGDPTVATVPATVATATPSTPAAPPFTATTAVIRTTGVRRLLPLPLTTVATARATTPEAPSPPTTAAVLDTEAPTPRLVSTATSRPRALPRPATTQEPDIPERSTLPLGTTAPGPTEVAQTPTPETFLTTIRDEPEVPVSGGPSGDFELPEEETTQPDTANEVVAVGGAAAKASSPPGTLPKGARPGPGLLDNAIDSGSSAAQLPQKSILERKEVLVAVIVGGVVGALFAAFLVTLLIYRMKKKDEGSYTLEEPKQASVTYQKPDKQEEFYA

- Kd: 6 nM
Substance: pleiotrophin (from UniProt P21246)
